{
  "source": "patent US20030152975A1",
  "target": "INF1 expressed in planta (FMV 35S promoter, PR1a signal peptide - INF1) (Phytophthora infestans (US-8 genotype))",
  "assay": "cell-based or functional assay",
  "data": [
    {"substance": "Nhr1 expressed from the cosmid Nhr1 clone (tobacco genomic DNA in binary cosmid 04541)", "values": [
      {"measurement": "necrosis percentage (average of 31 leaves), 78 hai", "result": 11, "unit": "%"},
      {"measurement": "necrosis percentage (average of 31 leaves), 94 hai", "result": 19.8, "unit": "%"},
      {"measurement": "necrosis percentage (average of 31 leaves), 102 hai", "result": 26, "unit": "%"},
      {"measurement": "necrosis percentage (average of 31 leaves), 120 hai", "result": 28.9, "unit": "%"},
      {"measurement": "necrosis percentage (average of 31 leaves), 140 hai", "result": 31, "unit": "%"}
    ]}
  ]
}
